The target of assay [1] is GST-calmodulin C-half (CaM-C, residues 75–148) (UniProt P0DP23). The assay is described as follows: pull-down.
Assay [2] addresses GST-calmodulin N-half (CaM-N, residues 1–74) (UniProt P0DP23). As to the kind of experiment: pull-down.

“IQGAP1 IQ domain (amino acids 717–916) IQ3R mutant (from UniProt P46940 717-916) (domain or fragment)”: the values for the percent of the binding of IQ3R to Ca2+-CaM-F in assay [1] and in assay [2] were 15% and 27%, respectively.

In assay [2], “IQGAP1 wild-type IQ domain (amino acids 717–916) (from UniProt P46940 717-916) (domain or fragment)” displayed a percent of the binding to Ca2+-CaM-F of 32%.

The record behind these values is publication PMC8195445.
